According to patent publication US20100016547A1, “Glycosilated Peptide and Medicine Comprising It as an Effective Ingredient” (priority 2005, published 2010):

Tests used:
GLP-1 receptor [1] = target: GLP-1 receptor
GLP-1 receptor [2] = target: GLP-1 receptor; remark: listed apart in the source

EX (peptide)
EC50 (cAMP assay) (GLP-1 receptor [1]): 0.55 nM | IC50 (GLP-1 receptor [2]): 0.1 nM
